Data published in patent US10226417B2, “Drug delivery systems and applications” (priority 2011, dated 2019).
≈ marks a conversion by molar mass, not a printed value. Where two headings read alike, the source gives them in different places.

Legend:
[1] = cited from earlier work
[2] = cited from earlier work; remark: listed apart in the source
[3] = Circular dichroism analysis of released protein; type: physicochemical; conditions: protein released from O-LA-SG into PBS, sample at day 40
Method: At day 40 a sample of the PBS solution was tested be circular dichroism CD analysis to monitor for any changes in protein structure.

[4] = Isoelectric focusing (IEF) of ovalbumin during processing; type: physicochemical
Method: Samples of O-LA were prepared as in Example 5. Samples at each step of the process were collected and analyzed by Isoelectric focusing (IEF) which measures the isoelectric point (pI) of the protein. A shift in pI of more than 0.2 is indicative of a single deamidation reaction. All samples had pI values that indicated no deamidation had occurred. The same samples were analyzed by ELISA. The ELISA tests indicated no denaturation of the epitope had occurred.

[5] = 1-octanol/water (pH 7.4; buffer solution)

Question: With CCCCCCCCCC(=O)O [decanoic] as the molecule, how does the “log P” value ([1]; pH 7.4) read?
Answer: Its value is 3.75.

Question: For CCCCCCCCCCCC(=O)O [dodecanoic], which Methyl ester solubility ([2]; value is for the methyl ester of the acid named in the row) is on record?
Answer: Its Methyl ester solubility is 4.8 µg/mL.

Question: What about the “Solubility in water at 20° C.” value [2] of the same molecule?
Answer: The value was 55 µg/mL (≈ 275 µM).

Question: What about the “log P” value [1, 5] of the same molecule?
Answer: The value was 4.77.

Question: For CCCCCCCCCCCCCCCC(=O)OC [methyl palmitate], which “log P” value [1, 5] is on record?
Answer: The value was 7.41.

Question: For CCCCCCCCCCCCCCCCCC(=O)OC [methyl stearate], which “log P” value [1, 5] is on record?
Answer: The value was 8.43.

Question: For CCCCCCCCCCCCCC(=O)O [tetradecanoic], which “Solubility in water at 20° C.” value [2] is on record?
Answer: Its value is 20 µg/mL (≈ 87.6 µM).

B1: ovalbumin: protein albumin used to model a water soluble therapeutic agent protein (protein, UniProt P01012 2-386, looked up)
Ovalbumin: GSIGAASMEFCFDVFKELKVHHANENIFYCPIAIMSALAMVYLGAKDSTRTQINKVVRFDKLPGFGDSIEAQCGTSVNVHSSLRDILNQITKPNDVYSFSLASRLYAEERYPILPEYLQCVKELYRGGLEPINFQTAADQARELINSWVESQTNGIIRNVLQPSSVDSQTAMVLVNAIVFKGLWEKAFKDEDTQAMPFRVTEQESKPVQMMYQIGLFRVASMASEKMKILELPFASGTMSMLVLLPDEVSGLEQLESIINFEKLTEWTSSNVMEERKIKVYLPRMKMEEKYNLTSVLMAMGITDVFSSSANLSGISSAESLKISQAVHAAHAEINEAGREVVGSAEAGVDAASVSEEFRADHPFLFCIKHIATNAVLFFGRCVSP
Question: For B1, which “change in protein structure by circular dichroism” value [3] is on record?
Answer: The value was “no wavelength shift”.

B2: Ground Albumin powder: ovalbumin ground to a fine powder, process sample (protein, UniProt P01012 2-386, looked up)
Ovalbumin: B1 Ovalbumin
modifications: ground powder
notes: ovalbumin ground to a fine powder, process sample
Question: Which results are given for B2?
Answer: IEF data Ovalbumin A1 % ([4]; Sample 1): 81.7%; IEF data Ovalbumin A1 pI ([4]; Sample 1): 5.10; IEF data Ovalbumin A2 + A3 % ([4]; Sample 1): 18.3%; IEF data Ovalbumin A2 + A3 pI ([4]; Sample 1): 5.15; IEF data Ovalbumin A1 % ([4]; Sample 2): 81.2%; IEF data Ovalbumin A1 pI ([4]; Sample 2): 5.11; IEF data Ovalbumin A2 + A3 % ([4]; Sample 2): 18.8%; IEF data Ovalbumin A2 + A3 pI ([4]; Sample 2): 5.15

B3: Albumin powder: ovalbumin powder, process sample before grinding (protein, UniProt P01012 2-386, looked up)
Ovalbumin: B1 Ovalbumin
modifications: powder
notes: ovalbumin powder, process sample before grinding
Question: Which “IEF data Ovalbumin A1 %” value ([4]; Sample 1) does the source give for B3 here?
Answer: Its value is 80.9%.

Question: What about the “IEF data Ovalbumin A1 pI” value ([4]; Sample 1) of the same molecule?
Answer: The value was 5.10.

Question: And the “IEF data Ovalbumin A2 + A3 %” value ([4]; Sample 1)?
Answer: The value was 19.1%.

Question: What about the “IEF data Ovalbumin A2 + A3 pI” value ([4]; Sample 1) of the same molecule?
Answer: Its value is 5.14.

Question: What about the “IEF data Ovalbumin A1 %” value ([4]; Sample 2) of the same molecule?
Answer: Its value is 82.2%.

Question: What about the “IEF data Ovalbumin A1 pI” value ([4]; Sample 2) of the same molecule?
Answer: The value was 5.09.

Question: And the “IEF data Ovalbumin A2 + A3 %” value ([4]; Sample 2)?
Answer: Its value is 17.8%.

Question: What about the “IEF data Ovalbumin A2 + A3 pI” value ([4]; Sample 2) of the same molecule?
Answer: Its value is 5.14.
